Test results reported in patent US20060210568A1, “Methods and compositions for cancer treatment” (priority 2003, published 2006).
Entries after “also recorded” stand apart in the source; their conditions may differ.

Legend:
Assay type in all cases: cell-based, human
MCF-7 cells [1] = experiment: Oil Red O staining of lipid droplets; settings: ADRP overexpressing versus EV MCF-7 cells, FIG. 4B
Procedure: This is also supported by the fact that ADRP overexpressing cells accumulated lipid droplets at a higher level (higher number of droplets per cells and higher number of cells having droplets than the empty vector control MCF-7 cells as shown in FIG. 4A and FIG. 4B. A 5-fold increase in lipid droplets accumulation was observed (FIG. 4B). Specifically, cells were plated at the concentration of 2×10^5 per 35-mm dish in 5% FBS DMEM/F12. After 48 h of incubation, cells were washed once with PBS and fixed in 4% formalin for 30 min. Oil Red O working solution was added to cover all the cells, and the cells were incubated at 37° C. for 1 h. The Working Solution was prepared by mixing 6 ml 0.5% Oil Red O in isopropanol with 4 ml H2O, and centrifuging at 4000 g for 10 min to remove sediments. The plates were washed with tap water twice. Cells were counterstained by Hematoxylin QS (Vector Laboratories, California) for 45 sec, and washed with tap water.

[2] = test system: ADRP overexpressing cells (MCF7-C4); experiment: proliferation assay, ADRP overexpressing MCF-7 cells; settings: serum containing medium, with or without hormones and growth factors, FIGS. 1 and 2
Procedure: The vector used to over-express ADRP in MCF-7 cells is the ADRP-pcDNA3 vector described in Gao and Serrero, 1999. The G418 resistance gene was used as selectable marker. MCF-7 cells were transfected with the ADRP-pcDNA3 plasmid, using the lipofectamine method. Specifically, MCF-7 cells (WT) were plated onto 60-mm dish at the concentration of 2×10^5 cell per plate in 5% fetal bovine serum (FBS) in DMEM/F12 (1:1 mixture of Dulbecco's modified Eagle's medium and Ham' nutrient F12 medium) overnight before transfection. Cells were washed once with serum-free DMEM/F12 (without antibiotic). The lipofectamine method was used for the transfection. Specifically, 2 μg mouse ADRP pcDNA3 construct was used. Transfection was carried on according to manufacturer's recommendations, with 15 μl of lipofectamine and 5 hours of incubation. After transfection, the medium was replaced with 5% FBS DMEM/F12 and the cells were incubated overnight. G418 at the concentration of 800 μg/ml was added the day after for selection. Cells were selected with this medium for 3 weeks. Six clones were isolated and subjected to RT-PCR to determine the existence of the transfection construct. […] Cell numbers were counted by hemacytometer every two days. […]

MCF-7 cells [3] = experiment: FACS analysis of apoptosis and G1 phase; settings: ADRP-MCF-7 versus EV-MCF-7 cells
Text: Increased of percentage of cells in apoptosis and in G1 phase is shown by FACS analysis of ADRP-MCF-7 cells and EV-MCF-7 cells.

[4] = test system: beta casein expression in MCF-7 cells; experiment: beta casein expression by RT-PCR as marker of breast cancer cell differentiation; settings: versus control cells with no detectable level, FIG. 3A
Text: We then explored whether growth inhibition of cells overexpressing ADRP was accompanied by stimulated differentiation of the cells. In order to investigate this possibility, we measured the expression of markers of differentiation such as beta casein in the ADRP expressing cells when compared to EV cells. Beta casein is routinely used as a marker of mammary epithelial cell differentiation. We show by RT-PCR that the ADRP overexpressing cells express high level of casein mRNA. In contrast, the control cells had no detectable level of the gene product (see FIG. 3A). In FIG. 3A, GAPDH (Glyceraldehyde-3-phosphate dehydrogenase) loading was used as an internal control for equal sample mRNA expression. […] Measurement of Beta casein expression as marker of breast cancer cell differentiation was by RT-PCR as described above.

bcl-2 = bcl-2 expression in ADRP MCF-7 versus control MCF-7 cells; settings: ADRP overexpressing versus empty vector control cells, FIG. 5
Text: This is shown by down-regulation of bcl-2 in ADRP MCF-7 cells when compared to control MCF-7 cells. […] In other words, ADRP overexpression sensitizes the cells to apoptotic stimuli.

B1: ADRP: 50-kDa adipose differentiation related protein, over-expressed in MCF-7 cells by transfection with mouse ADRP pcDNA3 construct (protein, UniProt P43883 2-425, looked up)
Perilipin-2: AAAVVDPQQSVVMRVANLPLVSSTYDLVSSAYVSTKDQYPYLRSVCEMAEKGVKTVTSAAMTSALPIIQKLEPQIAVANTYACKGLDRMEERLPILNQPTSEIVASARGAVTGAKDVVTTTMAGAKDSVASTVSGVVDKTKGAVTGSVERTKSVVNGSINTVLGMVQFMNSGVDNAITKSELLVDQYFPLTQEELEMEAKKVEGFDMVQKPSNYERLESLSTKLCSRAYHQALSRVKEAKQKSQETISQLHSTVHLIEFARKNMHSANQKIQGAQDKLYVSWVEWKRSIGYDDTDESHCVEHIESRTLAIARNLTQQLQTTCQTVLVNAQGLPQNIQDQAKHLGVMAGDIYSVFRNAASFKEVSDGVLTSSKGQLQKMKESLDEVMDYFVNNTPLNWLVGPFYPQSTEVNKASLKVQQSEVKAQ
modifications: expressed from pcDNA3
notes: 50-kDa adipose differentiation related protein, over-expressed in MCF-7 cells by transfection with mouse ADRP pcDNA3 construct
MCF-7 cells [1]
  increase in lipid droplets accumulation: ~5 fold
[2]
  growth of cells over-expressing ADRP: grow very slowly
MCF-7 cells [3]
  percentage of cells in apoptosis and in G1 phase: Increased
[4]
  casein mRNA expression in ADRP overexpressing cells: stimulation of casein expression; also recorded: high level
bcl-2
  Bcl-2 expression: dramatically decreased; also recorded: much lower level
